Results published in the supplement of paper PMC7125110.
± gives the standard error. Fewer inactive variants are shown than the library holds.

B1: glmS ribozyme (parent)
chain: AUAAAAGCGCCAGAACUACAGAAAUGUAGUUGACGAGGAGGAGGUUUAUCGAAUUUUCGGCGGAUGCCUCCAAA

Legend:
Settings in all cases: with glucosamine-6-phosphate
glucosamine-6-phosphate [1] = variants of: B1; assay: self-cleavage kobs at 160 uM GlcN6P; higher = faster cleavage; RNA array
Method in brief: (§1)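 The measurements used barcoded ribozyme variants on sequenced MiSeq chips, transcribed in situ by E. coli RNA polymerase and tracked at 37 °C with a hybridised Cy3 probe. Glucosamine-6-phosphate, 40 μM to 10 mM in HEPES/KCl/Mg(OAc)2 buffer, was flowed in while tiles were imaged over ~14 h. Baseline-normalised signals, also normalised to non-cleaving reference variants, gave per-tile medians that were fit to one- or two-exponential decays for kobs. kcat and KM resulted from weighted Michaelis–Menten fits across concentrations.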

glucosamine-6-phosphate [2] = variants of: B1; assay: self-cleavage kobs at 640 uM GlcN6P; higher = faster cleavage; RNA array
Method in brief: as §1

glucosamine-6-phosphate [3] = variants of: B1; assay: self-cleavage kobs at 2500 uM GlcN6P; higher = faster cleavage; RNA array
Method in brief: as §1

glucosamine-6-phosphate [4] = variants of: B1; assay: self-cleavage kobs at 10000 uM GlcN6P; higher = faster cleavage; RNA array
Method in brief: as §1

Variant	self-cleavage kobs at 160 uM GlcN6P (glucosamine-6-phosphate [1]) [s⁻¹]	self-cleavage kobs at 640 uM GlcN6P (glucosamine-6-phosphate [2]) [s⁻¹]	self-cleavage kobs at 2500 uM GlcN6P (glucosamine-6-phosphate [3]) [s⁻¹]	self-cleavage kobs at 10000 uM GlcN6P (glucosamine-6-phosphate [4]) [s⁻¹]
G40U C67G	< 1e-05	< 1e-05	–	–
G7A A48U C71U	< 1e-05	< 1e-05	< 1e-05	–
C10A A14U A52U C70G	0.00038 ± 0.00011	0.000294 ± 7.4e-05	8.93e-05 ± 3.8e-05	–
A15G C58A C70U	0.000138 ± 2.8e-05	8.95e-05 ± 1.1e-05	0.000182 ± 4.8e-05	0.000281 ± 5.3e-05
C11U A42G U54A	3.87e-05 ± 1.6e-05	0.000886 ± 0.00027	–	–
A12G G35U A42C A48C U57C	< 1e-05	–	–	–
C10G C34G G38A U47A	< 1e-05	–	–	–
A14G U49A U56A G62A C71U	< 1e-05	–	–	–
A14C A15U C70A	0.000105 ± 3.4e-05	0.000263 ± 5.6e-05	0.000232 ± 8.4e-05	–
C11A C34U G60U C71A	< 1e-05	–	< 1e-05	–
G41A G51C G63U C70G	< 1e-05	< 1e-05	–	–
C16U G41C G43C A48U U57C	< 1e-05	–	< 1e-05	–
G13A A39G C68A	< 1e-05	–	–	–
C34A U49C	< 1e-05	< 1e-05	< 1e-05	< 1e-05
A48C G60A C61A	< 1e-05	–	–	–
C11U A12U C71A	8.52e-05 ± 2.9e-05	0.000232 ± 4.5e-05	0.000457 ± 8.7e-05	–
A15C A53C C68U	< 1e-05	–	–	–
G7U U30G C34G	< 1e-05	–	< 1e-05	< 1e-05
U49C C58A G60U	< 1e-05	< 1e-05	< 1e-05	–
A36C A52C	< 1e-05	–	–	< 1e-05
A12U G32A G37A U45A	< 1e-05	–	–	–
U31A C50G	0.000119 ± 2.4e-05	0.000349 ± 0.00014	0.000577 ± 0.00022	–

Variant	self-cleavage kobs at 160 uM GlcN6P (glucosamine-6-phosphate [1]) [s⁻¹]	self-cleavage kobs at 640 uM GlcN6P (glucosamine-6-phosphate [2]) [s⁻¹]	self-cleavage kobs at 2500 uM GlcN6P (glucosamine-6-phosphate [3]) [s⁻¹]	self-cleavage kobs at 10000 uM GlcN6P (glucosamine-6-phosphate [4]) [s⁻¹]
G44A G66C	< 1e-05	–	–	–
G7A U56C	< 1e-05	< 1e-05	< 1e-05	< 1e-05
U31A A64U	< 1e-05	–	–	4.44e-05 ± 1.1e-05
C34A U55A	< 1e-05	< 1e-05	< 1e-05	–
A14G U56G U57C	3.78e-05 ± 1.6e-05	5.18e-05 ± 1.5e-05	0.000269 ± 8.2e-05	–
G38U G62C	< 1e-05	< 1e-05	–	–
A12U U30C	0.000652 ± 0.00019	0.00125 ± 0.00032	0.0109 ± 0.0027	–
C8G G51A U55G	< 1e-05	< 1e-05	–	–
U45C A53C C67U	< 1e-05	5.23e-05 ± 1.6e-05	6.03e-05 ± 1.8e-05	–
C10G G32U U69G	< 1e-05	–	–	–
A36U G41A A42U G43U	< 1e-05	< 1e-05	< 1e-05	–
U30C G32U C34G C50G	7.22e-05 ± 2.9e-05	8.64e-05 ± 3.3e-05	9.31e-05 ± 2.4e-05	–
G13A G35U G66U C67G	< 1e-05	–	< 1e-05	–
G9C A39C	< 1e-05	< 1e-05	< 1e-05	< 1e-05
U47C G51U C68U	< 1e-05	–	< 1e-05	–
G7C A24U U46A C68U	< 1e-05	< 1e-05	–	< 1e-05
G38C G51U U57C	< 1e-05	–	< 1e-05	–
U31C C34U C71U	< 1e-05	< 1e-05	< 1e-05	–
G35C A36U	< 1e-05	< 1e-05	< 1e-05	< 1e-05
C8A G9U C19A G29C C34A A48C	< 1e-05	–	< 1e-05	–
A15C G35U C70U	< 1e-05	–	–	–
C16U U55G U69G	9.72e-05 ± 2.1e-05	8.62e-05 ± 2.4e-05	5.05e-05 ± 1.1e-05	4.21e-05 ± 1.4e-05

Variant	self-cleavage kobs at 160 uM GlcN6P (glucosamine-6-phosphate [1]) [s⁻¹]	self-cleavage kobs at 640 uM GlcN6P (glucosamine-6-phosphate [2]) [s⁻¹]	self-cleavage kobs at 2500 uM GlcN6P (glucosamine-6-phosphate [3]) [s⁻¹]	self-cleavage kobs at 10000 uM GlcN6P (glucosamine-6-phosphate [4]) [s⁻¹]
G32A U49C C61A	< 1e-05	–	–	–
G9C G29A G51U	< 1e-05	< 1e-05	< 1e-05	–
A12G A36U C50G A64U C68U	6.37e-05 ± 2.6e-05	–	–	–
G43C G60C	< 1e-05	< 1e-05	< 1e-05	–
G44U U47C	< 1e-05	–	–	–
C8U U56C	< 1e-05	< 1e-05	< 1e-05	< 1e-05
A14G U56A C67A	0.00127 ± 0.00033	0.00567 ± 0.0018	0.00817 ± 0.0024	–
A33U C61G C70U	< 1e-05	–	–	–
G9U G13A	< 1e-05	< 1e-05	–	< 1e-05
A15C C61U A64U	< 1e-05	–	–	–
G13U G29A G66C	< 1e-05	–	–	–
C10U G40U G66U C67U	< 1e-05	–	< 1e-05	–
C10G G38U G41U U49C C50U C70A	< 1e-05	–	–	< 1e-05
C16U A39C A48U	< 1e-05	–	–	–
G51U U56C U57C G63U	< 1e-05	< 1e-05	< 1e-05	< 1e-05
C11U G32C A42G G59U	< 1e-05	–	< 1e-05	–
A6C C8G G66C	< 1e-05	< 1e-05	–	–
U31A G38A A42C	< 1e-05	< 1e-05	–	–
C11A G43U U49C C61A G63C	< 1e-05	–	< 1e-05	–
G51C U54G	< 1e-05	< 1e-05	–	–
A39C A53U G59U C67U	< 1e-05	–	–	–
G38A A39U	< 1e-05	< 1e-05	–	–

Variant	self-cleavage kobs at 160 uM GlcN6P (glucosamine-6-phosphate [1]) [s⁻¹]	self-cleavage kobs at 640 uM GlcN6P (glucosamine-6-phosphate [2]) [s⁻¹]	self-cleavage kobs at 2500 uM GlcN6P (glucosamine-6-phosphate [3]) [s⁻¹]	self-cleavage kobs at 10000 uM GlcN6P (glucosamine-6-phosphate [4]) [s⁻¹]
G9C C10U G41A G43U	< 1e-05	< 1e-05	–	–
A36G G60C	< 1e-05	< 1e-05	< 1e-05	< 1e-05
G35C U47G U55G	< 1e-05	–	–	< 1e-05
G51A A52U	< 1e-05	–	–	–
C8G G21U C34A A64G	< 1e-05	< 1e-05	< 1e-05	–
G35U A53C	< 1e-05	–	< 1e-05	< 1e-05
G13U A15U G44A	< 1e-05	< 1e-05	< 1e-05	–
G35A C50G G59C U65G	4.37e-05 ± 1.9e-05	< 1e-05	–	–
A6U C10A A39G G40C C61G C67G	< 1e-05	< 1e-05	< 1e-05	–
G35C G63C	< 1e-05	< 1e-05	< 1e-05	–
G43A C61G C67U C70U	< 1e-05	< 1e-05	–	–
G38C C61U C71U	< 1e-05	–	–	–
A39C G51A G63C	< 1e-05	< 1e-05	–	–
A52G C61U C68G	0.000141 ± 4.2e-05	0.000189 ± 6.4e-05	–	–
C50G U57G	0.000283 ± 0.00012	–	–	–
C16A G59A C70G	9.32e-05 ± 3.1e-05	–	–	–
G37U G38C C71U	< 1e-05	< 1e-05	–	–
C10A G13U A15G G40U U46G	< 1e-05	< 1e-05	< 1e-05	–
A6G C16U A39C	< 1e-05	–	–	6.06e-05 ± 9e-06
G37C U65A	< 1e-05	< 1e-05	–	–
C16U C58U	< 1e-05	–	2.45e-05 ± 6.4e-06	9.48e-05 ± 8.5e-06
G29A A39U G40A	7.25e-05 ± 2.4e-05	0.000163 ± 5.7e-05	0.000397 ± 0.0001	–

Variant	self-cleavage kobs at 160 uM GlcN6P (glucosamine-6-phosphate [1]) [s⁻¹]	self-cleavage kobs at 640 uM GlcN6P (glucosamine-6-phosphate [2]) [s⁻¹]	self-cleavage kobs at 2500 uM GlcN6P (glucosamine-6-phosphate [3]) [s⁻¹]	self-cleavage kobs at 10000 uM GlcN6P (glucosamine-6-phosphate [4]) [s⁻¹]
C8A A36C A42C G66C C67A	< 1e-05	–	< 1e-05	–
A33U A36C G43A C70G	< 1e-05	< 1e-05	< 1e-05	–
A14C A23C G43C	< 1e-05	< 1e-05	< 1e-05	–
G7C A14U C16G U30A U56A C67G	< 1e-05	< 1e-05	–	–
A6U G43C U57G C67U	< 1e-05	–	< 1e-05	< 1e-05
G32A G43A G63C	< 1e-05	–	< 1e-05	–
C16A G41A U56G	< 1e-05	< 1e-05	–	–
A33G G41A C70A	< 1e-05	< 1e-05	–	< 1e-05
G38A A39C G40U G43A U49G U54C	< 1e-05	< 1e-05	< 1e-05	–
G7U A14C G66U	< 1e-05	–	< 1e-05	–
A33C C70A	< 1e-05	< 1e-05	–	< 1e-05
U31G U45C C67G	0.000177 ± 7.3e-05	–	0.00223 ± 0.0006	–
G43U G60U U69G	< 1e-05	< 1e-05	–	–
G51U A53U	< 1e-05	< 1e-05	< 1e-05	< 1e-05
U30A G35C	< 1e-05	< 1e-05	< 1e-05	< 1e-05
C61U U65G	< 1e-05	< 1e-05	–	–
A14C A36C U65G	< 1e-05	< 1e-05	< 1e-05	–
A39G G41A G59U G60U	< 1e-05	–	–	–
C16A A33U A36C A39C G43U	< 1e-05	–	–	–
